Reference: the Human Domainome abundance scans (Beltran et al. 2025)
± gives the uncertainty stated by the source.

B1: Ankyrin-3, residues 4094 to 4171; numbered along this chain, Q12955 (parent)
chain: MAIVADHLGLSWTELARELNFSVDEINQIRVENPNSLISQSFMLLKKWVTRDGKNATTDALTSVLTKINRIDIVTLLE

Variants of: B1
Experiment: abundance fitness (aPCA) (normalised: wild type 0, dead -1); higher = more abundant; growth selection in yeast, the domain comes from the species named
Conditions: Homo sapiens

Variant	abundance fitness
MAIVADHLGLSWTELARELNFSVDEINQIRVENPNSLISQSFMLLKKWVTRDGKNATTDALTSVLTKINRIDIETLLE	-0.888 ± 0.16
MAIVADHLGLSWTELARELNFSVDEINQIRVENPNSLISQSFMLLKKWVTRDGKNATTDALTSVLTKINRIDIFTLLE	-1.08 ± 0.37
MAIVADHLGLSWTELARELNFSVDEINQIRVENPNSLISQSFMLLKKWVTRDGKNATTDALTSVLTKINRIDIGTLLE	-0.651 ± 0.11
MAIVADHLGLSWTELARELNFSVDEINQIRVENPNSLISQSFMLLKKWVTRDGKNATTDALTSVLTKINRIDIDTLLE	-0.944 ± 0.38
MAIVADHLGLSWTELARELNFSVDEINQIRVENPNSLISQSFMLLKKWVTRDGKNATTDALTSVLTKIWRIDIVTLLE	-1.01 ± 0.44
MAIVADHLGLSWTELARELNFSVDEINQIRVENPNSLISQSFMLLKKWVTRDGKNATTDALTSVLTKIYRIDIVTLLE	-0.699 ± 0.12
MAIVADHLGLSWTELARELNFSVDEINQIRVENPNSLISQSFMLLKKWVTRDGKNATTDALTSVLTKIVRIDIVTLLE	-0.928 ± 0.14
MAIVADHLGLSWTELARELNFSVDEINQIRVENPNSLISQSFMLLKKWVTRDGKNATTDALTSVLTKIHRIDIVTLLE	-0.308 ± 0.18
MAIVADHLGLSWTELARELNFSVDEINQIRVENPNSLISQSFMLLKKWVTRDGKNATTDALTSVLTKISRIDIVTLLE	-0.29 ± 0.057
MAIVADHLGLSWTELARELNFSVDEINQIRVENPNSLISQSFMLLKKWVTRDGKNATTDALTSVLTKIRRIDIVTLLE	-0.224 ± 0.067
MAIVADHLGLSWTELARELNFSVDEINQIRVENPNSLISQSFMLLKKWVTRDGKNATTDALTSVLTKIKRIDIVTLLE	-0.104 ± 0.14
MAIVADHLGLSWTELARELNFSVDEINQIRVENPNSLISQSFMLLKKWVTRDGKNATTDALTSVLTKIMRIDIVTLLE	-0.61 ± 0.23
MAIVADHLGLSWTELARELNFSVDEINQIRVENPNSLISQSFMLLKKWVTRDGKNATTDALTSVLTKILRIDIVTLLE	-0.679 ± 0.1
MAIVADHLGLSWTELARELNFSVDEINQIRVENPNSLISQSFMLLKKWVTRDGKNATTDALTSVLTKIQRIDIVTLLE	-0.061 ± 0.12
MAIVADHLGLSWTELARELNFSVDEINQIRVENPNSLISQSFMLLKKWVTRDGKNATTDALTSVLTKIPRIDIVTLLE	-0.811 ± 0.16
MAIVADHLGLSWTELARELNFSVDEINQIRVENPNSLISQSFMLLKKWVTRDGKNATTDALTSVLTKINRIMIVTLLE	-0.738 ± 0.33
MAIVADHLGLSWTELARELNFSVDEINQIRVENPNSLISQSFMLLKKWVTRDGKNATTDALTSVLTKINRISIVTLLE	-0.855 ± 0.16
MAIVADHLGLSWTELARELNFSVDEINQIRVENPNSLISQSFMLLKKWVTRDGKNATTDALTSVLTKINRIRIVTLLE	-0.784 ± 0.11
MAIVADHLGLSWTELARELNFSVDEINQIRVENPNSLISQSFMLLKKWVTRDGKNATTDALTSVLTKINRICIVTLLE	-0.958 ± 0.38
MAIVADHLGLSWTELARELNFSVDEINQIRVENPNSLISQSFMLLKKWVTRDGKNATTDALTSVLTKINRIQIVTLLE	-0.702 ± 0.3
MAIVADHLGLSWTELARELNFSVDEINQIRVENPNSLISQSFMLLKKWVTRDGKNATTDALTSVLTKINRIWIVTLLE	-0.894 ± 0.32
MAIVADHLGLSWTELARELNFSVDEINQIRVENPNSLISQSFMLLKKWVTRDGKNATTDALTSVLTKINRILIVTLLE	-0.718 ± 0.11
MAIVADHLGLSWTELARELNFSVDEINQIRVENPNSLISQSFMLLKKWVTRDGKNATTDALTSVLTKINRIPIVTLLE	-0.396 ± 0.12
MAIVADHLGLSWTELARELNFSVDEINQIRVENPNSLISQSFMLLKKWVTRDGKNATTDALTSVLTKINRIGIVTLLE	-0.878 ± 0.14

Variant	abundance fitness
MAIVADHLGLSWTELARELNFSVDEINQIRVENPNSLISQSFMLLKKWVTRDGKNATTDALTSVLTKINRIVIVTLLE	-0.644 ± 0.11
MAIVADHLGLSWTELARELNFSVDEINQIRVENPNSLISQSFMLLKKWVTRDGKNATTDALTSVLTKINRIEIVTLLE	-0.567 ± 0.17
MAIVADHLGLSWTELARELNFSVDEINQIRVENPNSLISQSFMLLKKWVTRDGKNATTDALTSVLTKINRIAIVTLLE	-0.739 ± 0.14
MAIVADHLGLSWTELARELNFSVDEINQIRVENPNSLISQSFMLLKKWVTRDGKNATTDALTSVLTKINRIDVVTLLE	-0.276 ± 0.089
MAIVADHLGLSWTELARELNFSVDEINQIRVENPNSLISQSFMLLKKWVTRDGKNATTDALTSVLTKINRIDMVTLLE	-0.503 ± 0.14
MAIVADHLGLSWTELARELNFSVDEINQIRVENPNSLISQSFMLLKKWVTRDGKNATTDALTSVLTKINRIDLVTLLE	-0.148 ± 0.05
MAIVADHLGLSWTELARELNFSVDEINQIRVENPNSLISQSFMLLKKWVTRDGKNATTDALTSVLTKINRIDNVTLLE	-0.597 ± 0.39
MAIVADHLGLSWTELARELNFSVDEINQIRVENPNSLISQSFMLLKKWVTRDGKNATTDALTSVLTKINRIDCVTLLE	-0.695 ± 0.16
MAIVADHLGLSWTELARELNFSVDEINQIRVENPNSLISQSFMLLKKWVTRDGKNATTDALTSVLTKINRIDWVTLLE	-0.793 ± 0.15
MAIVADHLGLSWTELARELNFSVDEINQIRVENPNSLISQSFMLLKKWVTRDGKNATTDALTSVLTKINRIDYVTLLE	-0.938 ± 0.39
MAIVADHLGLSWTELARELNFSVDEINQIRVENPNSLISQSFMLLKKWVTRDGKNATTDALTSVLTKINRIDPVTLLE	-0.858 ± 0.17
MAIVADHLGLSWTELARELNFSVDEINQIRVENPNSLISQSFMLLKKWVTRDGKNATTDALTSVLTKINRIDSVTLLE	-0.849 ± 0.25
MAIVADHLGLSWTELARELNFSVDEINQIRVENPNSLISQSFMLLKKWVTRDGKNATTDALTSVLTKINRIDGVTLLE	-0.977 ± 0.15
MAIVADHLGLSWTELARELNFSVDEINQIRVENPNSLISQSFMLLKKWVTRDGKNATTDALTSVLTKINRIDAVTLLE	-0.631 ± 0.16
MAIVADHLGLSWTELARELNFSVDEINQIRVENPNSLISQSFMLLKKWVTRDGKNATTDALTSVLTKINRIDEVTLLE	-0.989 ± 0.31
MAIVADHLGLSWTELARELNFSVDEINQIRVENPNSLISQSFMLLKKWVTRDGKNATTDALTSVLTKINRIDHVTLLE	-0.715 ± 0.24
MAIVADHLGLSWTELARELNFSVDEINQIRVENPNSLISQSFMLLKKWVTRDGKNATTDALTSVLTKINAIDIVTLLE	-0.918 ± 0.19
MAIVADHLGLSWTELARELNFSVDEINQIRVENPNSLISQSFMLLKKWVTRDGKNATTDALTSVLTKINVIDIVTLLE	-0.876 ± 0.2
MAIVADHLGLSWTELARELNFSVDEINQIRVENPNSLISQSFMLLKKWVTRDGKNATTDALTSVLTKINLIDIVTLLE	-0.82 ± 0.13
MAIVADHLGLSWTELARELNFSVDEINQIRVENPNSLISQSFMLLKKWVTRDGKNATTDALTSVLTKINPIDIVTLLE	-0.74 ± 0.29
MAIVADHLGLSWTELARELNFSVDEINQIRVENPNSLISQSFMLLKKWVTRDGKNATTDALTSVLTKINCIDIVTLLE	-0.817 ± 0.2
MAIVADHLGLSWTELARELNFSVDEINQIRVENPNSLISQSFMLLKKWVTRDGKNATTDALTSVLTKINQIDIVTLLE	-0.908 ± 0.23
MAIVADHLGLSWTELARELNFSVDEINQIRVENPNSLISQSFMLLKKWVTRDGKNATTDALTSVLTKINKIDIVTLLE	-0.393 ± 0.24
MAIVADHLGLSWTELARELNFSVDEINQIRVENPNSLISQSFMLLKKWVTRDGKNATTDALTSVLTKINWIDIVTLLE	-0.795 ± 0.11

Variant	abundance fitness
MAIVADHLGLSWTELARELNFSVDEINQIRVENPNSLISQSFMLLKKWVTRDGKNATTDALTSVLTKINGIDIVTLLE	-1 ± 0.14
MAIVADHLGLSWTELARELNFSVDEINQIRVENPNSLISQSFMLLKKWVTRDGKNATTDALTSVLTKINMIDIVTLLE	-0.774 ± 0.33
MAIVADHLGLSWTELARELNFSVDEINQIRVENPNSLISQSFMLLKKWVTRDGKNATTDALTSVLTKINDIDIVTLLE	-0.753 ± 0.25
MAIVADHLGLSWTELARELNFSVDEINQIRVENPNSLISQSFMLLKKWVTRDGKNATTDALTSVLTKINRQDIVTLLE	0.136 ± 0.14
MAIVADHLGLSWTELARELNFSVDEINQIRVENPNSLISQSFMLLKKWVTRDGKNATTDALTSVLTKINRHDIVTLLE	-0.198 ± 0.12
MAIVADHLGLSWTELARELNFSVDEINQIRVENPNSLISQSFMLLKKWVTRDGKNATTDALTSVLTKINRDDIVTLLE	0.307 ± 0.22
MAIVADHLGLSWTELARELNFSVDEINQIRVENPNSLISQSFMLLKKWVTRDGKNATTDALTSVLTKINRFDIVTLLE	0.066 ± 0.12
MAIVADHLGLSWTELARELNFSVDEINQIRVENPNSLISQSFMLLKKWVTRDGKNATTDALTSVLTKINRMDIVTLLE	0.039 ± 0.062
MAIVADHLGLSWTELARELNFSVDEINQIRVENPNSLISQSFMLLKKWVTRDGKNATTDALTSVLTKINRLDIVTLLE	0.081 ± 0.053
MAIVADHLGLSWTELARELNFSVDEINQIRVENPNSLISQSFMLLKKWVTRDGKNATTDALTSVLTKINRTDIVTLLE	-0.016 ± 0.13
MAIVADHLGLSWTELARELNFSVDEINQIRVENPNSLISQSFMLLKKWVTRDGKNATTDALTSVLTKINREDIVTLLE	-0.066 ± 0.095
MAIVADHLGLSWTELARELNFSVDEINQIRVENPNSLISQSFMLLKKWVTRDGKNATTDALTSVLTKINRYDIVTLLE	0.082 ± 0.19
MAIVADHLGLSWTELARELNFSVDEINQIRVENPNSLISQSFMLLKKWVTRDGKNATTDALTSVLTKINRGDIVTLLE	0.085 ± 0.049
MAIVADHLGLSWTELARELNFSVDEINQIRVENPNSLISQSFMLLKKWVTRDGKNATTDALTSVLTKINRVDIVTLLE	0.015 ± 0.055
MAIVADHLGLSWTELARELNFSVDEINQIRVENPNSLISQSFMLLKKWVTRDGKNATTDALTSVLTKINRNDIVTLLE	-0.155 ± 0.22
MAIVADHLGLSWTELARELNFSVDEINQIRVENPNSLISQSFMLLKKWVTRDGKNATTDALTSVLTKINRSDIVTLLE	-0.048 ± 0.076
MAIVADHLGLSWTELARELNFSVDEINQIRVENPNSLISQSFMLLKKWVTRDGKNATTDALTSVLTKINRKDIVTLLE	0.057 ± 0.13
MAIVADHLGLSWTELARELNFSVDEINQIRVENPNSLISQSFMLLKKWVTRDGKNATTDALTSVLTKINRADIVTLLE	-0.075 ± 0.071
MAIVADHLGLSWTELARELNFSVDEINQIRVENPNSLISQSFMLLKKWVTRDGKNATTDALTSVLTKINRWDIVTLLE	-0.029 ± 0.077
MAIVADHLGLSWTELARELNFSVDEINQIRVENPNSLISQSFMLLKKWVTRDGKNATTDALTSVLTKINRPDIVTLLE	-0.046 ± 0.063
MAIVADHLGLSWTELARELNFSVDEINQIRVENPNSLISQSFMLLKKWVTRDGKNATTDALTSVLTKINRCDIVTLLE	-0.167 ± 0.15
MAIVADHLGLSWTELARELNFSVDEINQIRVENPNSLISQSFMLLKKWVTRDGKNATTDALTSVLTKINRRDIVTLLE	-0.036 ± 0.045
